Results: publication PMC5481561, “The crystal structure of mammalian inositol 1,3,4,5,6-pentakisphosphate 2-kinase reveals a new zinc-binding site and key features for protein function” (The Journal of Biological Chemistry, 2017)
Residue numbers refer to the chain shown, from its start. Names may count otherwise.

How the values were obtained:
[1] = substrate: O=P(O)(O)O[C@@H]1[C@@H](OP(=O)(O)O)[C@H](OP(=O)(O)O)[C@H](O)[C@H](OP(=O)(O)O)[C@H]1OP(=O)(O)O; assay: HPLC of IP5-dependent ATP to ADP conversion; type: biochemical, Mus musculus; details: 50 μM ATP, 1 mM MgCl2, 20 mM Hepes, pH 7.3, 0.2–5 μM IP5
[2] = substrate: O=P(O)(O)O[C@@H]1[C@@H](OP(=O)(O)O)[C@H](OP(=O)(O)O)[C@H](O)[C@H](OP(=O)(O)O)[C@H]1OP(=O)(O)O; assay: HPLC of IP5-dependent ATP to ADP conversion; type: biochemical, Mus musculus; details: 50 μM ATP, 1 mM MgCl2, 20 mM Hepes, pH 7.3, 0.2–5 μM IP5; remark: listed apart in the source
Excerpt: HPLC of IP5-dependent ATP to ADP conversion on LSLt-ΔC-mIP5 2-K | showing very similar kinetic parameters (Fig. 3A)

B1: LSLt-ΔC-mIP5 2-K (Mus musculus) (protein)
chain: MEEGKMDENEWSYHGEGNKSLVVAHAQRCVVLRFLKFPPNKKKTSEEILQHLQNIVDFGKNVMKDFLGENYVHCGEVVQLPLEFVKQLCLKIQCERPESRCDKDLDTFSGYAMCLPNLTRLQTFHFAEHRPILCVEIKPKCGFIPFSNDVTHEMKHKVCRYCMHQHLKVATGKWKKISKYCPLDLYSGNKQRMHFALRSLLQETQNNLRIFKNGELIYGCGDARSPVADLKELAHHLKPFFFPSNGLASGPHCTKAVIRELVHVITRVLLSSSEKARAGALRLGLQGPRVCEASPFSRSLHNQGKNTSEHSGLPKGCLLYKTLQVQMLDQLDIEGLYPLYKRVEQYLEEFPEERKTLQIDGPYDEVFYQKLLDLSTEDDGTVAFALTKVQQYRVAMTAKDCSIMIALSPCLQGTSSDQRPVIPSSRSRLAFSVSVLDLDLKPYESIPHQYKLDSKIVNYYSKTVHAKD
notes: lacks the 21 C-terminal residues (stop codon at 469); LSLt (Laetiporus sulphureus lectin) tag kept; E. coli BL21 Star (DE3)
B1 showed a Km [1] of 0.29 µM.

B2: LSLt-ΔC-mIP5 2-K (Mus musculus; K173A) (protein)
chain: B1 chain with K173A
notes: as for B1
B2 gave a Km [2] of 0.2729 ± 0.0895 µM.
